Molecular target: von Willebrand factor full length (Homo sapiens, UniProt P04275 SEQ:764-2813)
Experiment: filter; 20 nM protein
Conditions: tags: Calbiochem 681300
Experimental: When a significant positive ratio of binding of DNA in the presence of human or rabbit vWF A1 domain versus in the absence of protein was seen, the pools were cloned using the TOPO TA cloning kit (Invitrogen Cat.# 45-0641, Carlsbad, Calif.) according to the manufacturer's instructions. […] All unique clones were assayed twice in a 3-point dot blot screen (no protein target control, 20 nM full length human vWF (Calbiochem Cat.# 681300, La Jolla, Calif.), or 20 nM rabbit vWF A1 domain. The data is presented in the third and fourth columns of Table 17 below as the ratio of the fraction of the aptamer bound to the nitrocellulose in the presence of the target protein to the fraction of aptamer bound in the absence of the target protein.

Binder	binding signal
AMX237.E9 (ssDNA) DNA: CTACCTACGATCTGACTAGCTCCAGTGTTTTGTCTAATAACCGTGCGGTGCCTCCGTGAGCTTACTCTCATGTAGTTCC	2.13 ratio to no protein
AMX238.G5 (ssDNA) DNA: CTACCTACGATCTGACTAGCTCCAGTGTTTTATTCAATAACCGTGCGGTGCCTCCGTGAGCTTACTCTCATGTAGTTCC	3.06 ratio to no protein
AMX238.D5 (ssDNA) DNA: CTACCTACGATCTGACTAGCTCCAGTGTTTTATTCAATAACCGTGCGGTGTCTCCGTGAGCTTACTCTCATGTAGTTCC	1.46 ratio to no protein
AMX237.B11 (ssDNA) DNA: CTACCTACGATCTGACTAGCTCCAGTGTTTTATCTAATAACCGTGCGGTGCCTCCGTGAGCTTACTCTCATGTAGTTCC	2.87 ratio to no protein
AMX238.D8 (ssDNA) DNA: CTACCTACGATCTGACTAGCTCCAGTGTTTTATCCAACAACCGTGCGGTGCCTCCGTGAGCTTACTCTCATGTAGTTCC	2.02 ratio to no protein
AMX238.E7 (ssDNA) DNA: CTACCTACGATCTGACTAGCGTGCAGTGCCTATTTTAGGCCGTGCGGTGCCTCCGTCACGCTTACTCTCATGTAGTTCC	3.02 ratio to no protein
AMX238.F3 (ssDNA) DNA: CTACCTACGATCTGACTAGCGTGCAGTGCCTATTTTAGGTCGTGCGGGGCCTCCGTCACGCTTACTCTCATGTAGTTCC	2.83 ratio to no protein
AMX237.C11 (ssDNA) DNA: CTACCTACGATCTGACTAGCGTGCAGTGCCTATTCTAGGCCGTGCGGTGCCTCCGTCATGCTTACTCTCATGTAGTTCC	2.04 ratio to no protein
AMX238.F2 (ssDNA) DNA: CTACCTACGATCTGACTAGCATGCAGTGCCCATTCTAGGCCGTGCGGTGCCTCCGTCATGCTTACTCTCATGTAGTTCC	2.84 ratio to no protein
AMX237.F9 (ssDNA) DNA: CTACCTACGATCTGACTAGCTTGGTAGCGATTCTGTGGAGCTGCGGTTTGGTCGACGTCAGCTTACTCTCATGTAGTTCC	2.21 ratio to no protein
AMX237.F12 (ssDNA) DNA: CTACCTACGATCTGACTAGCTTGGTAGCGATTTTGTGGAGCTGCGGTTTGGTCGACGTCAGCTTACTCTCATGTAGTTCC	1.95 ratio to no protein
AMX237.C9 (ssDNA) DNA: CTACCTACGATCTGACTAGCTTGGTAGTGACTTTGTGGAGCTGCGGTTTGGTCGACGTCAGCTTACTCTCATGTAGTTCC	2.05 ratio to no protein
AMX237.F10 (ssDNA) DNA: CTACCTACGATCTGACTAGCGTGCAGTGCCCATTCCAGGCCGTGCGGTATCCTCCGTCACGCTTACTCTCATGTAGTTCC	2.9 ratio to no protein
AMX236.H2 (ssDNA) DNA: CTACCTACGATCTGACTAGCGTGCAGTGCCTATCCCAGGCCGTGCGGTAGCCTCCGTCACGCTTACTCTCATGTAGTTCC	2.12 ratio to no protein
AMX237.C5 (ssDNA) DNA: CTACCTACGATCTGACTAGCGTGCAGTGCCTATCTCAGGCCGTGCGGTATCCTCCGTCACGCTTACTCTCATGTAGTTCC	2.55 ratio to no protein
AMX236.A12 (ssDNA) DNA: CTACCTACGATCTGACTAGCTTGGTAGCGACTCTGTGGAGCTGCGGTTTGGTCGACGTCAGCTTACTCTCATGTAGTTCC	2.64 ratio to no protein
AMX236.B8 (ssDNA) DNA: CTACCTACGATCTGACTAGCTTGGTAGCGACTCTGTGGAGCTGCGGTCTGGTCGACGTCAGCTTACTCTCATGTAGTTCC	1.66 ratio to no protein
AMX236.A11 (ssDNA) DNA: CTACCTACGATCTGACTAGCTTGGTAGCGACTCTGTGGAGCTGCGGTCTGGCCGACGTCAGCTTACTCTCATGTAGTTCC	2.02 ratio to no protein
AMX237.D5 (ssDNA) DNA: CTACCTACGATCTGACTAGCTTGGTAGCGACACTGTGGAGCTGCGGTTTGGTTGACGTCAGCTTACTCTCATGTAGTTCC	1.41 ratio to no protein
AMX236.C12 (ssDNA) DNA: CTACCTACGATCTGACTAGCTTGGTAGCGACTCCGTGGAGCTGCGGTTTGGTCGACGTCAGCTTACTCTCATGTAGTTCC	1.99 ratio to no protein

Binder	binding signal
AMX237.H10 (ssDNA) DNA: CTACCTACGATCTGACTAGCTTGGTAGCGACTCAGAGGAGCTGCGGTTTGGTCGACGTCAGCTTACTCTCATGTAGTTCC	1.71 ratio to no protein
AMX237.G7 (ssDNA) DNA: CTACCTACGATCTGACTAGCTTGGTAGCGACTTTGTGGAGCTGCGGTTTGGTCGACGTCAGCTTACTCTCATGTAGTTCC	2.68 ratio to no protein
AMX236.G4 (ssDNA) DNA: CTACCTACGATCTGACTAGCTTGGTAGCGACTTTGTGGAGATGCGGTTTGGTTGACGTCAGCTTACTCTCATGTAGTTCC	1.7 ratio to no protein
AMX238.G4 (ssDNA) DNA: CTACCTACGATCTGACTAGCTTGTCGCACTTTTGGTTGGTCTGGTTGGTTCTAAGTGCGCTTACTCTCATGTAGTTCC	1.09 ratio to no protein
AMX237.B1 (ssDNA) DNA: CTACCTACGATCTGACTAGCTTGGTAGCGACACAGTGGAGCTGCGGTTTGGTCGACGTCAGCTTACTCTCATGTAGTTCC	2 ratio to no protein
AMX237.C4 (ssDNA) DNA: CTACCTACGATCTGACTAGCTTTCAGTCTTCCACATTTATAGGGTTTGGCATTGGGTCTGGCTTACTCTCATGTAGTTCC	0.97 ratio to no protein
AMX237.E5 (ssDNA) DNA: CTACCTACGATCTGACTAGCTTTCAGTCTTCTACATTTATAGGGTTTGGCATTGGGTCTGGCTTACTCTCATGTAGTTCC	0.97 ratio to no protein
AMX237.F1 (ssDNA) DNA: CTACCTACGATCTGACTAGCTTTCAGTCTTCCACGTTTATAGGGTTTGGCATTGGGTCTGGCTTACTCTCATGTAGTTCC	0.98 ratio to no protein
AMX237.F5 (ssDNA) DNA: CTACCTACGATCTGACTAGCTTTTAGTCTTCCACATTTATAGGGTTTGGCATTGGGTCTGGCTTACTCTCATGTAGTTCC	0.99 ratio to no protein
AMX238.H11 (ssDNA) DNA: CTACCTACGATCTGACTAGCTTTCAGTCTTTCACATTTATAGGGTTTGGCATTGGGTCTGGCTTACTCTCATGTAGTTCC	0.98 ratio to no protein
AMX237.G2 (ssDNA) DNA: CTACCTACGATCTGACTAGCTTTCAGTCTTTCATATTTATAGGGTTTGGCATTGGGTCTGGCTTACTCTCATGTAGTTCC	1.02 ratio to no protein
AMX236.H1 (ssDNA) DNA: CTACCTACGATCTGACTAGCCTCAGATTGACTCCGGCCGACTTGTTTTAATCTTCTGAGTGCTTACTCTCATGTAGTTCC	1.1 ratio to no protein
AMX236.B3 (ssDNA) DNA: CTACCTACGATCTGACTAGCCTTACCTATTCCCTTCTGCGGAATACGTCGAGTACTATGCTTACTCTCATGTAGTTCC	1.54 ratio to no protein
AMX236.G1 (ssDNA) DNA: CTACCTACGATCTGACTAGCCTCAGATTGACTCCGGCTGACTTGTTTTAATCTTCTGAGTGCTTACTCTCATGTAGTTCC	1.47 ratio to no protein
AMX237.A11 (ssDNA) DNA: CTACCTACGATCTGACTAGCTCCAGTGTTTTATCCAATAACCGTGCGGTGCCTCCGTGAGCTTACTCTCATGTAGTTCC	2.66 ratio to no protein
AMX237.A2 (ssDNA) DNA: CTACCTACGATCTGACTAGCTCCAGTGTTTCATCCAATAACCGTGCGGTGCCTCCGTGAGCTTACTCTCATGTAGTTCC	2.6 ratio to no protein
AMX238.D12 (ssDNA) DNA: CTACCTACGATCTGACTAGCTCCAGTGTTTCATTCAATAACCGTGCGGTGCCTCCGTGAGCTTACTCTCATGTAGTTCC	2.4 ratio to no protein
AMX237.H5 (ssDNA) DNA: CTACCTACGATCTGACTAGCTCCAGTGTTTCATTTAATAACCGTGCGGTGCCTCCGTGAGCTTACTCTCATGTAGTTCC	1.63 ratio to no protein
AMX237.E2 (ssDNA) DNA: CTACCTACGATCTGACTAGCTCCAGTGTTTCATCTAATAACCGTGCGGTGCCTCCGTGAGCTTACTCTCATGTAGTTCC	1.61 ratio to no protein
AMX237.B4 (ssDNA) DNA: CTACCTACGATCTGACTAGCTCCAGTGTTTCATCCAATAACCGTGCGGTGCTTCCGTGAGCTTACTCTCATGTAGTTCC	1.42 ratio to no protein

From patent publication US20060264369, “Aptamers to von Willebrand Factor and their use as thrombotic disease therapeutics” (published 2006)
